According to US20180142226:
Substitutions are numbered along the chain they refer to.

T1: 33mer peptide of α-gliadin
T1 chain: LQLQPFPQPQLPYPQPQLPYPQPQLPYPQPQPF

T2: 26mer peptide of γ-gliadin
T2 chain: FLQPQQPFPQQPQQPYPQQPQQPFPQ

T3: W02-E07
T3 chain: LQPFPQPQLPYPQPQ

T4: W03-E07
T4 chain: QPFPQPQQPFPWQP

T5: R11-E4E7
T5 chain: QPFPQQPEQIIPQQP

T6: B08-E2E7
T6 chain: PQQPIPQQPQPYPQQ

B1: Kuma021 (protein)
chain: AAPTAYTPLDVAQAYQFPEGLDGQGQCIAIIELGGGYDEASLAQYFASLGVPAPQVVSVSVDGASNQPTGDPKGPDGEVELDIEVAGALAPGAKFAVYFAPDTTAGFLDAITTAIHDPTLKPSVVSISWSGPEDSWTSAAIAAMNRAFLDAAALGVTVLAAAGDSGSTSGEQDGLYHVHFPAASPYVLACGGTRLVASGGRIAQETVWNQGPDGGATGGGVSRIFPLPAWQEHANVPPSANPGASSGRGVPDLAGNADPQTGYEVVIDGEATVTGGTSAVAPLFAALVARINQKLGKAVGYLNPTLYQLPADVFHDITEGNNDIANRAQIYQAGPGWDPCTGLGSPIGVRLLQALLPSASQPQP
B2: Kuma020 (protein)
chain: AAPTAYTPLDVAQAYQFPEGLDGQGQCIAIIELGGGYDEASLAQYFASLGVPAPQVVSVSVDGASNQPTGDPKGPDGEVELDIEVAGALAPGAKFAVYFAPDTTAGFLDAITTAIHDPTLKPSVVSISWSGPEDSWTSAAIAAMNRAFLDAAALGVTVLAAAGDSGSTSGEQDGLYHVHFPAASPYVLACGGTRLVASGGRIAQETVWNDGPDGGATGGGVSRIFPLPAWQEHANVPPSANPGASSGRGVPDLAGNADPATGYEVVIDGEATVTGGTSAVAPLFAALVARINQKLGKAVGYLNPTLYQLPADVFHDITEGNNDIANRAQIYQAGPGWDPCTGLGSPIGVRLLQALLPSASQPQPGSTENLYFQSGALEHHHHHH
B3: Kuma050 (protein)
chain: B2 chain with K73E, E80T, L81V, S165Q, D210Q, A260Q, T274I
B4: Kuma030 (protein)
chain: B2 chain with K73E, E80T, S165Q, D210Q, A260Q
B5: Kuma040 (protein)
chain: B2 chain with E80T, S130A, S169G, H179F, D210Q, A260Q

How the values were obtained:
[1] = molecular target: T1, 33mer peptide of α-gliadin
[2] = molecular target: T2, 26mer peptide of γ-gliadin
W02-E07 = molecular target: T3, W02-E07
W03-E07 = molecular target: T4, W03-E07
R11-E4E7 = molecular target: T5, R11-E4E7
B08-E2E7 = molecular target: T6, B08-E2E7

Row | Protein | appearance of peptide breakdown products over time [1] | Activity Improvement over Background (Kuma010) (peptides containing PQQ) | Activity Improvement over Background (Kuma010) (peptides containing PQL) | appearance of peptide breakdown products over time [2] | Kcat (DQ2.5-glia-ω1) [s⁻¹] | Km (DQ2.5-glia-ω1) [mM] | Vmax (DQ2.5-glia-ω1) [M/s] | kcat/Km (DQ2.5-glia-ω1) [M⁻¹ s⁻¹] | Activity Improvement over Background (Kuma021) (peptides containing PQQ) | Activity Improvement over Background (Kuma021) (peptides containing PQL) | Kcat (DQ2.5-glia-α1a) [s⁻¹] | Km (DQ2.5-glia-α1a) [mM] | Vmax (DQ2.5-glia-α1a) [M/s] | kcat/Km (DQ2.5-glia-α1a) [M⁻¹ s⁻¹] | also measured
1 | B1 |  |  |  |  |  |  |  |  |  |  |  |  |  |  | Activity Improvement over Background (Kuma020) (peptides containing PQQ): 1.2-2.5x (PQQ); Activity Improvement over Background (Kuma020) (peptides containing PQL): 1-2x (PQL)
2 | B2 | Kuma020 demonstrated a moderate amount of activity on both peptides | 15-35x (PQQ) | 7-19x (PQL) | Kuma020 demonstrated a moderate amount of activity on both peptides |  |  |  |  |  |  |  |  |  |  | 
3 | B3 | Kuma050 demonstrated good activity on the 33mer peptide |  |  | very poor activity on the 26mer peptide | 27.8 | 5 | 2.78e-06 | 56 | 0.01-0.2x (PQQ) | 1.5-2x (PQL) | 14.2 | 2.5 | 1.42e-06 | 5610 | 
4 | B4 | In both cases, Kuma030 was the dominant enzyme tested |  |  | In both cases, Kuma030 was the dominant enzyme tested | 27.3 | 8.4 | 2.73e-06 | 3270 | 1.2-2x (PQQ) | 1.2-2x (PQL) | 17.4 | 1.9 | 1.74e-06 | 9030 | cleavage products by mass spectroscopy (W02-E07): Kuma030 cleaved each peptide after the PQ dipeptide motif; cleavage products by mass spectroscopy [1]: Kuma030 cleaved each peptide after the PQ dipeptide motif; activity relative to Kuma010 (peptides containing PQQ): 44-fold more active against peptides containing PQQ; activity relative to Kuma040 (peptides containing PQQ): Kuma030 is 2-fold more active on PQQ, and 2-fold less active on PQL, than Kuma040; activity relative to Kuma010 (peptides containing PQL): 11-fold more active against peptides containing PQL; activity relative to Kuma040 (peptides containing PQL): Kuma030 is 2-fold more active on PQQ, and 2-fold less active on PQL, than Kuma040; cleavage products by mass spectroscopy (W03-E07): Kuma030 cleaved each peptide after the PQ dipeptide motif; cleavage products by mass spectroscopy (R11-E4E7): Kuma030 cleaved each peptide after the PQ dipeptide motif; cleavage products by mass spectroscopy (B08-E2E7): Kuma030 cleaved each peptide after the PQ dipeptide motif
5 | B5 | Kuma040 demonstrated activity almost as potent as Kuma030 especially against the 26mer peptide | 30-40x (PQQ); | 35-50x (PQL) | Kuma040 demonstrated activity almost as potent as Kuma030 especially against the 26mer peptide | 24.6 | 15.3 | 2.46e-06 | 1600 |  |  | 16.3 | 0.86 | 1.49e-06 | 19100 | 
